Measurements taken from patent US9725517B2, “Humanized monoclonal antibodies against the extracellular domain of human death receptor 5” (Institute of Basic Medical Sciences, Chinese Academy of …, priority 2012, dated 2017).

Test system: Jurkat, HCT116, BEL-7402 and H460 cancer cells
Experiment: CCK-8 cytotoxicity assay of killing cancer cells
Assay type: cell-based, human
Details: summary statement; leukemia, liver cancer, colon cancer, lung cancer cells
Experimental: The assay was carried out in 96-well cell culture plates. Various concentrations (0, 0.5, 1, 2, 4, 8 μg/ml) of humanized anti-human DR5 monoclonal antibodies AD10, AD14 and AD15 were separately added into to human T-cell lymphocytic leukemia cells Jurkat (ATCC, TIB-152), colon cancer cells HCT116 (ATCC, CCL-247), liver cancer cells BEL-7402 (cell bank, Shanghai Institutes for Biological Sciences of Chinese Academy of Sciences, TCHu 10) and non-small cell lung cancer cells H460 (ATCC, HTB-177) in logarithmic growth phase, for 24 hours; parental murine anti-human DR5 monoclonal antibody (AD5-10) and human-mouse chimeric antibody zaptuximab were used as controls. According to the protocol of CCK-8 cytotoxicity detection kit (Dojindo, Gaithersburg, Md.), CCK-8 agents were added and incubated for 2 to 4 hours, the OD value was measured at 450 nm wavelength in micro-ELISA plate detector. The OD value in cell-free well was set as blank control “0”. Cell survival rate=OD value in treated well/OD value in untreated well.

B1: zaptuzumab: intact humanized monoclonal antibody against DR5 expressed in HEK293 cells and purified by affinity chromatography (antibody, chains of the INN, looked up, V domains shown)
VH: QVQLVQSGSELKKPGASVKVSCKASGYTFTDFSMNWVRQAPGQGLEWMGWINTETGEPTYADDFKGRFVFSLDTSVSTAYLQISSLKAEDTAVYYCARIDYWGQGTTVTVSS
VL: DIVMTQSPLSLPVTPGEPASISCRSSQSLVHSNGNTYLHWYLQKPGQSPQLLIYKVSNRFSGVPDRFSGSGSGTDFTLKISRVEAEDVGVYYCFQSTHVPHTFGQGTKLEIK
killing activity to cancer cells in vitro: strong killing activity to various cancer cells
